These results are taken from patent US20090118185A1 (UNIVERSITY OF ROCHESTER, published 2009).

Changes are numbered by the printed parent chain.

For series [1], the target named is T1, 336(P4-P2)562 factor VIIIa mutant.
T1 chain 1: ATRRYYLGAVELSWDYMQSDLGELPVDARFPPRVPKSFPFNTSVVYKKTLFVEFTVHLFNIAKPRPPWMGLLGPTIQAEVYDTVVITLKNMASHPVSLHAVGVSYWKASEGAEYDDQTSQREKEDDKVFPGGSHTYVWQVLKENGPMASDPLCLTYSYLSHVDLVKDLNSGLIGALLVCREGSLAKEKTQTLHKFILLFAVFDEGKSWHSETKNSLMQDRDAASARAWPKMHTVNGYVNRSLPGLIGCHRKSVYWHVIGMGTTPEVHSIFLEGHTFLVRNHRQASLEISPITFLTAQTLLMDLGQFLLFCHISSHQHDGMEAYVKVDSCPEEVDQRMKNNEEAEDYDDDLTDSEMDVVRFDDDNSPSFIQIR
T1 chain 2: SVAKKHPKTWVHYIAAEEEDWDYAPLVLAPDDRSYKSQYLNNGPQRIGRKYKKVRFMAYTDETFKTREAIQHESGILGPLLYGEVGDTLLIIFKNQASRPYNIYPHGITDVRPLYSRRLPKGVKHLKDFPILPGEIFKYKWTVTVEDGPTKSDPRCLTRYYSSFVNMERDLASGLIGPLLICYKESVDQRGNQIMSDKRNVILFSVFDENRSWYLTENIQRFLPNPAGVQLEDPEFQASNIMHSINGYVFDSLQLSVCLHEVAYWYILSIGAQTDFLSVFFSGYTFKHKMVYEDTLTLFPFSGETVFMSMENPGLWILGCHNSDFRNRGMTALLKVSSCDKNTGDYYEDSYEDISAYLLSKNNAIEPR
T1 chain 3: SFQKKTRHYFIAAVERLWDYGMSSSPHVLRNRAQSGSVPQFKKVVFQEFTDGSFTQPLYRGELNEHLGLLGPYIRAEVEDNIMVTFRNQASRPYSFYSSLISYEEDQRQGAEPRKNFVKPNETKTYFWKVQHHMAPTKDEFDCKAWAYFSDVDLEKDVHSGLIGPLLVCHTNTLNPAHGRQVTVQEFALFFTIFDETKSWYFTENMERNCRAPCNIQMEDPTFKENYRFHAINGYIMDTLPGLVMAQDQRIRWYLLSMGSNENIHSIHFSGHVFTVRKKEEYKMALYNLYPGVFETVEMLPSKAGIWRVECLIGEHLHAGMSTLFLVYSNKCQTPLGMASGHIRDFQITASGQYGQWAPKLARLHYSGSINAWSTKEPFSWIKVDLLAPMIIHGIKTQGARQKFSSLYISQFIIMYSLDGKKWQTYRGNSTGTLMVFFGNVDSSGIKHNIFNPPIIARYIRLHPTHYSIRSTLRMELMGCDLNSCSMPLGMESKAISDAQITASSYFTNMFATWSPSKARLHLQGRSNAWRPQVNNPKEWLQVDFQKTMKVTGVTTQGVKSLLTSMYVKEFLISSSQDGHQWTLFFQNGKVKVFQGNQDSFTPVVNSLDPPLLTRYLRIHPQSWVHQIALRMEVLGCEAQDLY

Series [2] addresses T2, 562(P4-P2)336 factor VIII mutant (procofactor).
T2 chain 1: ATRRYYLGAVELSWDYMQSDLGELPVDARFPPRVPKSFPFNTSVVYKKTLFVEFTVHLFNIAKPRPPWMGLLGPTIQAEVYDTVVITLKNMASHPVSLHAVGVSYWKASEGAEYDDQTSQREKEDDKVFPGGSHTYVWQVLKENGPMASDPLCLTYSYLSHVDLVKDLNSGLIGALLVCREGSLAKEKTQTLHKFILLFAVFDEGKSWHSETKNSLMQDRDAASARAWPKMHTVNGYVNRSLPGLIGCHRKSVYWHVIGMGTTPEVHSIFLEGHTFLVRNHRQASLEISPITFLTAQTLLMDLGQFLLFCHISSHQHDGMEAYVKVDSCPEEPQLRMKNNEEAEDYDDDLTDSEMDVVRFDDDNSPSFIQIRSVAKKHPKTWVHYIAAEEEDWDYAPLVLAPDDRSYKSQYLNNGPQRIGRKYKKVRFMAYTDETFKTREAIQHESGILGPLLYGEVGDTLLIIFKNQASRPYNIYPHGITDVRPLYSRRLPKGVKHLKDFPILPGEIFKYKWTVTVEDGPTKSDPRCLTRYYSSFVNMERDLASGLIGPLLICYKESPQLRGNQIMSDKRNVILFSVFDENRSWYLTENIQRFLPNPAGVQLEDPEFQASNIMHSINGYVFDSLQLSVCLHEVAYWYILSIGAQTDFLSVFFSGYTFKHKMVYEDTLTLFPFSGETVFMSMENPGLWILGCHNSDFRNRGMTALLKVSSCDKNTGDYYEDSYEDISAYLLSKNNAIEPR
T2 chain 2: T1 chain 3

For series [3], the target named is T3, WT factor VIII (B-domainless recombinant human factor VIII procofactor).
T3 chain 1: T2 chain 1 with P559V, Q560D, L561Q
T3 chain 2: T1 chain 3

B1: human activated protein C (protein)
chain 1: ANSFLEELRHSSLERECIEEICDFEEAKEIFQNVDDTLAFWSKHVDGDQCLVLPLEHPCASLCCGHGTCIDGIGSFSCDCRSGWEGRFCQREVSFLNCSLDNGGCTHYCLEEVGWRRCSCAPGYKLGDDLLQCHPAVKFPCGRPWKRMEKKRSHL
chain 2: LIDGKMTRRGDSPWQVVLLDSKKKLACGAVLIHPSWVLTAAHCMDESKKLLVRLGEYDLRRWEKWELDLDIKEVFVHPNYSKSTTDNDIALLHLAQPATLSQTIVPICLPDSGLAERELNQAGQETLVTGWGYHSSREKEAKRNRTFVLNFIKIPVVPHNECSEVMSNMVSENMLCAGILGDRQDACEGDSGGPMVASFHGTWFLVGLVSWGEGCGLLHNYGVYTKVSRYLDWIHGHIRDKEAPQKSWAP
B1: in series [1], the A1 Cleavage (nM A1/min/nM APC) (nM A1/min/nM APC) was found to be 0.6; the A2 Cleavage (nM A2/min/nM APC) (nM A2/min/nM APC) was found to be 0.2; the “fold reduction of cleavage rate at the A1 site compared with WT” value was “reduced ˜16 and ˜9-fold, respectively, as compared with the WT protein”. Moreover, the A2 Cleavage (nM A2/min/nM APC) (nM A2/min/nM APC) in series [2] came out at 0.6. Besides, the A2 Cleavage (nM A2/min/nM APC) (nM A2/min/nM APC) in series [3] was found to be 0.1.
